Experimental data reported in the DeepSol protein solubility set.

test: soluble on expression in E. coli; label from the status in PepcDB or PDB records

| Sequence | soluble on expression in E. coli |
| --- | --- |
| SPSAEERQKEERTAGLNETVPQATDGELPDDKLKGYELGRDEEKESHRQETLGNLYDYFEKKDETREQEISEEAASDGLHPIERSVSRYEETSQMVHSFYEPPAYDYEKEALREELDMIRSELATLKEEKEEEIDHLELLEKSYRMAAKYFPASGDANSRDAYTRSQERPADAPAPKTAVTAERAALPAVELLPEKKAIVSSLDQPMSDSAFIAEYGHKERNFGFRSADVPASSVTRNTLRVVVDRTTTLQHGDFVQLRLLESARLHDLSIPRHTRLMAQARIDGNRMKLHITSIEYGGRIVSVQLSAFDTDGQEGVFIPGSEEVSALKE | not soluble |
| MGSDKIHHHHHHMLGASQPYDLGPGIRRGSRGKGGAMTQIPNHDPLSDWGLPGWIYTSERFFKEEQDKVFRPSWQIVCHLNDIPKAGDFHTFDFIGESLVVVRSKDGGVRAFANVCRHRGARLLDGPVGRCGGRIVCPYHAWTYDLEGRLIGVPMRDDYPALDMAKEGLATIEVEVWRGFVFVRLEGDGPSVATMMAPYEDEVAHYRFEELQPFGRVTLRPRAVNWKNISDNYSDGLHIPVAHPGLTRLFGKGYGVEAEAYVDKMWGQLIDEPSESPSERLYQDILPDVAHLPGDRKRLWTYFKLWPNFAFDIYPDQVDFMQFIPISAEQTMIREIAYALPDDRREMKAARYLNWRINRQVNTEDTELVARVQQGMASRTFTAGPLATSEVSLRSFGRKMRALIPESRMPRPPEGW | not soluble |
| MSLKTSKTSTVVLIVPTTWSPFFAELVYRMQVELDRIGFKMILANSHADPDEEEEILRMASLNQVTGVITMSYSNIYNFINIGKKLNLVSIERFISEDVPLITSDNYGGGQLAAEKLITFGSKRFLLLRRKTNHYNATDKRTEGFLHIMKENNLPVDIFEASLKENYIEEFIHYLKTHFSGDVLTFDGIFGVTDEYAVIAKQVLFELNPSYLNKVNIIGFDGSKSQEKGSYQIASIRQPVEAMVKAAVKVLKKLIDGEEVPSHYSKVFDVSFVEPERLVEGHHHHHH | soluble |
| MGSDKIHHHHHHKSVHPYWSQVEQGVKAAGKALGVDTKFFVPQKEDINAQLQMLESFIAEGVNGIAIAPSDPTAVIPTIKKALEMGIPVVTLDTDSPDSGRYVYIGTDNYQAGYTAGLIMKELLGGKGKVVIGTGSLTAMNSLQRIQGFKDAIKDSEIEIVDILNDEEDGARAVSLAEAALNAHPDLDAFFGVYAYNGPAQALVVKNAGKVGKVKIVCFDTTPDILQYVKEGVIQATMGQRPYMMGYLSVTVLYLMNKIGVQNTLMMLPKVKVDGKVDYVIDTGVDVVTPENLDEYLKKMEELGIPIKF | not soluble |
| MAIFRDQAENHVEHDRSIEDRRRHRQLVEKSIKENLGDILSEESIIGETKNKKYKIPIRGIKEYQFIYGANNKGVTTGTGEERRGDRISSDKRKAISNNKAGNQEGKDIYETEITLEELMDYIVEDLDLPNLDRKKYSEIIVESAAKKRGYQKYGVRPRLAKKKTVMCKIARKQGKKRALREIGEEAEIGRFPFREDDLRYYKVKKHPKKESNAVMIFIMDVSGSMDNTKKYLARSFFFVLSRFIRRKYNNVAFEFISHTTTAKNVNEYEFFHKGESGGTYISSGINAAIDLIKEKYNPGVWNIYPFYASDGDNWSEDNEKAMEAVNEISDLSNMFGYIELLPSTYSTTMFYRFKKEISKENFVSVTVKEKKDLWNAIKYMLSEELQEKNKELEHHHHHH | not soluble |
| MTTIVGVRAREVLDSRGFPTVEAEVELEGGARGRAMVPSGASTGTHEALELRDGGKRYLGKGVRRAVENVNERIAPELVGMDALDQEGVDRAMLELDGTPNKANLGANAVLAVSLAVARAAAEALGLPLYRYLGGVQGVTLPVPLMNVINGGKHADNRVDFQEFMLVPAGAGSFAEALRIGAEVFHTLKAVLKEKGYSTNVGDEGGFAPDLRSNEEAVELLLLAIERAGYTPGQEVSLALDPATSELYRDGKYHLEGEGKVLSSEEMVAFWEAWVEKYPIRSIEDGLAEDDWEGWRLLTERLGGKVQLVGDDLFVTNPERLRAGIERGVANAILVKVNQIGTLSETLEAIRLAQRSGYRAVISHRSGETEDSFIADLAVAVNAGQIKTGSLSRSDRLAKYNQLLRIEEELGRAARFLGYAAF | soluble |
| MAHHHHHHMGQGLTGGAMAGAALSITALPLRLTLADHLGICGAATACGLALDFASDCCSKEGRVIIHRDVLLKAQDPLRHLSTFYTTCESNRMARLFRQKHEWVVLESHGQQYYVVQKNPATGDVLMDVRNSLRAANDVGLQVAGKPMHTGEIRQHRMETEFDLPSDLQVAYVIAWLRKEDPRWAFSTENSRQFTARVRYALMDF | not soluble |
| MIRLVAFDLDGTIGDTIPLCLAAFREATTPYVDHELSDDEIARTFGLNEEGMINQVVYGDSREKALNDFYVIYEEMHAILCPKPFEGMKTLIGQLHERNVIVVLITGKGIRSCDITLKQFGMDGCFDRIETGSSEKNRKSEAMKDILLYYGFKSNEMIYVGDAVSDIEACYFVKIQCLSAAWAASTDCEQLEKYNSGYVFSSVRLLRDFL | not soluble |
| DKSPSSLTLALGKNIAGRPTVADLARMPHLLVAGTTGSGKSVAVNAMVLSLLFKASHNDLRMLMIDPKMLELSVYQGIPHLLAPVVTDMKEAANGLRWCVAEMERRYKLMSAVGVRNLAGFNKKVKDAEEAGQPLMDPLFKPNPDLSEVPRPLQKLPFIVIFIDEFADMMMIVGKKVEELIARLAQKARAAGIHLILATQRPSV | not soluble |
| MAYWLLKSEPQVYGIEDLEREGRAIWDGVRNYQARNYLMQMKEGDLCFFYHSGTTPPGIAGRCRVVRTLLPDPTQFDPESPYYDPKATPEKPRWYTVEVAFVEKWPLVPLAELKALFPPDHPLVKRGNRLSVMPVPPEVAEALIVRRGSR | soluble |
| SLPIDAVLPALRQALTTRHEAVLEAPPGAGKTTRVPLALLEETWLAGQTILMLEPRRLAARAAAERLASELGEKVGETVGYRIRLESCVGPKTRIEVVTEGILTRCLQDDPALEGVGLLIFDEFHVLPFA | not soluble |
| MSGVSLGRGQNANAAYLDNIKELGFKLVRRPTGGGALLHPEDNEITYSVVLSASNTIAKLSVDESAVEIAKGILYTLQILGENVDIRGLGDMKKHDLCYLRSGSSDVIVAGRKISGSAQVRDDKALLQHGTLLLRFEPEI | soluble |
| MAHNNYLDLEMLFNECNAQHYENLGMFFKWLQQFAAHHEDPKITIKDFKGDKTSGEMILHVNTFTLFKYRQEFDMKVSALNDNGLGWKILFVDRSLGCN | not soluble |
| MTAVVNIAAYKFVSIANPADLREPMLEQAGQRQLKGTVLLAPEGINLFLAGAADAIEGFLRWLRADARFADLQAKYSESARMPFRKLLVKVKREIIRMDHPAIRPEAGRAPAVDAATLRRWLAQGRDDQGRELVMLDTRNAFEVEVGTFRGALDWRIERFTQFPQAVRDNQAALAGKTVVSFCTGGIRCEKAAIYMAEAGIEHVYQLEGGILKYFEETDGAGFDGACFVFDERVALDAALAPQALEHHHHHH | soluble |
| MSEEGFMLAVLKGIPLIQDIRAEGNSRSWIMTIDGHPARGEIFSEAFSISLFLNDLESLPKPCLAYVTLLLAAHPDVHDYAIQLTADGGWLNGYYTTSSSSELIAIEIEKHLALTCILKNVIRNHHKLYSGGV | not soluble |
| MEINTIIGNNLKKIRQEKKLTLDELAGITGVSKGMLSQIEKGTTNPTINTIWKISNGLNVPYTYLLEDDYVKENPVVKKTETVTQHSEDHSYRVFNYYSDNQERNFELFQFELDPGKKYQAVGHSKRSTEYVMVIQGALALEVGGQRYLLPKDAAMYFDANQVHTYINDGTEKVQAVVINYYT | not soluble |
| MGKNEILWGIAPIGWRNDDMPEIGAGNTLQHLLSDIVVARFQGTEVGGFFPEPAILNKELKLRNLRIAGKWFSSFILRDGLGEAAKTFTLHCEYLQQVNADVAVVSEQTYSVQSLEKNVFTEKPHFTDDEWERLCEGLNHLGEIAAQHGLKLVYHHHLGTGVQTAEEVDRLMAGTDPAHVHLLYDTGHAYISDGDYMGMLEKHIGRIKHVHFKDARLNVMEQCRLEGQSFRQSFLKGMFTVPGDGCIDFREVYQLLLKHSYSGWIVIEAEQDPDVANPLEYALIARNYIDQQLLDLALEHHHHHH | not soluble |
| MDATISVVCYKSKTLSNGEHPLMLRISKDGKKKYQSLGISVNPKFWDFQKNKPKPKCPNLEYLQKIILDKKLELQKKMLEIKSDQKEYSAATLIEANEKLQVAKNVDCFYKEIIAQCEINNKCGNRLVYLNSYNSLKRFTNGKLEIPFNTINVAWLEKYEKWLRSNGNKETTISLMFRTLRSTYNKAIKERCAHLSDYPFQEYKISKFDTSTQKRAIAKTDMLKFTETSQPIGQKKYVELSKDIFIFSYLCGGINFTDIANLTQENIVNGRLHYIRQKTGKLIKIGIPQEAMQIIKKYTDESNG | not soluble |
| DLYRRQQGELKQTKLQNSILLSVSHDLRTPLATIIGTLTTLNEYMPKLNDLERKELLDSATSESHRLHQYIENLLQATKLQHGTLKITKKDEPIANIVRDAVSRLPNYTEKVSMNMDDSVGYLSVSRSL | not soluble |
| MWTEQHVKEIDSIIRKKEDEQLSLPIMEQKLQINNRRYLGSKYKLLEFICKVVRENCTSVSSVADIFGGTGVVADRFNKEGKDIIVNDILYSNYLAYLTWFSNEKVNITKIEKLIKFFNESEPTEDNYVSINFGGTYFTEYNARKIGYVREEIEKMSDELNAREKAILITSLIYAMDKVANTVGHYDAYRRKLDSIKEIKLLMPEFNDGLNNGNKIFKEDANELVRKISADLIYIDTPYNSRQYGDAYHLLENIAEWEKPDLVGVAKKMIDRSHIKSDYCTMKATSAFADLISNIKGKYILVSYNNMAQKGVGRSNAKISSEEIVEILETRGTVEIFETNFQAYTTGKTNIDDHKEILYLCEVSR | not soluble |
| MWHSIEQAISVETGKSFYISEKKEISTRPASSSSFTCSYDNKEPPPNLSFKITDGHRSYFLKINNKDYLENFQAEAYSLKQLNSLANIASPNVTAIGTSLDKSFLVLDYIDFSKAKPMLWYQLGQQLAQMHYENRHGQFGWQHDNFIGSTIQPNHWSSNWTTFFSDQRIAWQLQLLSERSIMLGNIEHITQVCHDALLHHQVSPCLVHGDLWQGNTGFSGEKAMIFDPACYYGDREVDIAMTELFGHFPDDFYHGYQAEYPLDDGYEQRKLVYNFYHILNHANIFGGIYIDQAKATLSRIMSLPLHLEHHHHHH | not soluble |
| MLEFVMREWKKSRKLLGQRLFNKLMKMTFYGHFVAGEDQESIQPLLRHYRAFGVSAILDYGVEEDLSPEEAEHKEMESCTSAAERDGSGTNKRDKQYQAHRAFGDRRNGVISARTYFYANEAKCDSHMETFLRCIEASGRVSDDGFIAIKLTALGRPQFLLQFSEVLAKWRCFFHQMAVEQGQAGLAAMDTKLEVAVLQESVAKLGIASRAEIEDWFTAETLGVSGTMDLLDWSSLIDSRTKLSKHLVVPNAQTGQLEPLLSRFTEEEELQMTRMLQRMDVLAKKATEMGVRLMVDAEQTYFQPAISRLTLEMQRKFNVEKPLIFNTYQCYLKDAYDNVTLDVELARREGWCFGAKLVRGAYLAQERARAAEIGYEDPINPTYEATNAMYHRCLDYVLEELKHNAKAKVMVASHNEDTVRFALRRMEELGLHPADHQVYFGQLLGMCDQISFPLGQAGYPVYKYVPYGPVMEVLPYLSRRALENSSLMKGTHRERQLLWLELLRRLRTGNLFHRPA | soluble |
